Measured values published in US20250263466A1 (VIR BIOTECHNOLOGY, published 2025).
Where a chain is given by its changes, count along the chain named.

B1: nCoV-10 mAb (antibody, V domains shown)
VH: QVQLVESGGGVVQPGRSLRLSCAASGFTFSNYGMHWVRQAPGKGLEWLAVISSDGRIKFYADSVKGRFTMSRDSSKNTLYLQMNSLRAEDTAVYYCAKDRFQFARSWYGDYFDYWGQGTQVTVSS
VL: AVAMTQSPLSLPVTLGQPASISCRSNQSLVYSDGNIYLNWFQQRPGQSPMRLIYRVSNRDSGVPDRFSGSGSGTDFTLKISRVEAEDVGIYYCMQGTHWPPTFGGGTKVEIK
B2: nCoV-19 mAb (antibody, V domains shown)
VH: QVKLVESGGGVVQPGRSLRLSCAASGFTFSSNAMHWVRQTPGKGLEWVALISYDERNKYYAESVKGRFTISRDNSKNTLYLQMNSLRHEDTAVYYCARDLQMRVVVVSNFDYWGQGTLVTVSS
VL: DVVMTQSPLSLPVTLGQPASISCRSSQSLVYSDGNTYLNWFQQRPGQSPRRLIYEVSNWDSGVPDRFSGSGSGTDFTLKISRVEAEDVGVYYCMQATHWPPTFGQGTKLEIK
B3: nCoV-1 mAb (antibody, V domains shown)
VH: QAQLVESGGALVQPGRSLRLSCAASGFTFRNYAMHWVRQAPATGLQWLAVITSDGRNKFYADSVKGRFTISREDSKNTLYLQMDSLRGEDTAVYYCVTQRDNSRDYFPHYFHDMDVWGQGTTVAVSS
VL: B2 VL with M4L, N35D, E55Q, W59R, A96G, T97S, L109V
B4: nCoV-20 mAb (antibody, V domains shown)
VH: QVTLRESGPALVKPTQTLTLTCTFSGFSLTTTEMCVGWIRQPPGKALEWLALIDWDDDKYYSTSLRTRLTISKDTSKNQVVLTMTNMDPVDTATYYCARMFGRKRLAPTGFDPWGQGTLVTVSS
VL: DIVMTQSPLSLPVTPGEPASISCRSSQSLLHSNGKNYLDWYLQKPGQSPQLLICLGSYRASGVPDRFSGSGSGTDFTLKISRVEAEDVGVYYCMQALQTPWTFGQGTKVEIK

Key:
[1] = target: T1, MERS-CoV S protein (London1/2012) expressed on ExpiCHO cells (MERS-CoV, UniProt K9N5Q8 18-1353); assay: flow cytometry on ExpiCHO cells transfected with MERS-CoV S
T1 sequence: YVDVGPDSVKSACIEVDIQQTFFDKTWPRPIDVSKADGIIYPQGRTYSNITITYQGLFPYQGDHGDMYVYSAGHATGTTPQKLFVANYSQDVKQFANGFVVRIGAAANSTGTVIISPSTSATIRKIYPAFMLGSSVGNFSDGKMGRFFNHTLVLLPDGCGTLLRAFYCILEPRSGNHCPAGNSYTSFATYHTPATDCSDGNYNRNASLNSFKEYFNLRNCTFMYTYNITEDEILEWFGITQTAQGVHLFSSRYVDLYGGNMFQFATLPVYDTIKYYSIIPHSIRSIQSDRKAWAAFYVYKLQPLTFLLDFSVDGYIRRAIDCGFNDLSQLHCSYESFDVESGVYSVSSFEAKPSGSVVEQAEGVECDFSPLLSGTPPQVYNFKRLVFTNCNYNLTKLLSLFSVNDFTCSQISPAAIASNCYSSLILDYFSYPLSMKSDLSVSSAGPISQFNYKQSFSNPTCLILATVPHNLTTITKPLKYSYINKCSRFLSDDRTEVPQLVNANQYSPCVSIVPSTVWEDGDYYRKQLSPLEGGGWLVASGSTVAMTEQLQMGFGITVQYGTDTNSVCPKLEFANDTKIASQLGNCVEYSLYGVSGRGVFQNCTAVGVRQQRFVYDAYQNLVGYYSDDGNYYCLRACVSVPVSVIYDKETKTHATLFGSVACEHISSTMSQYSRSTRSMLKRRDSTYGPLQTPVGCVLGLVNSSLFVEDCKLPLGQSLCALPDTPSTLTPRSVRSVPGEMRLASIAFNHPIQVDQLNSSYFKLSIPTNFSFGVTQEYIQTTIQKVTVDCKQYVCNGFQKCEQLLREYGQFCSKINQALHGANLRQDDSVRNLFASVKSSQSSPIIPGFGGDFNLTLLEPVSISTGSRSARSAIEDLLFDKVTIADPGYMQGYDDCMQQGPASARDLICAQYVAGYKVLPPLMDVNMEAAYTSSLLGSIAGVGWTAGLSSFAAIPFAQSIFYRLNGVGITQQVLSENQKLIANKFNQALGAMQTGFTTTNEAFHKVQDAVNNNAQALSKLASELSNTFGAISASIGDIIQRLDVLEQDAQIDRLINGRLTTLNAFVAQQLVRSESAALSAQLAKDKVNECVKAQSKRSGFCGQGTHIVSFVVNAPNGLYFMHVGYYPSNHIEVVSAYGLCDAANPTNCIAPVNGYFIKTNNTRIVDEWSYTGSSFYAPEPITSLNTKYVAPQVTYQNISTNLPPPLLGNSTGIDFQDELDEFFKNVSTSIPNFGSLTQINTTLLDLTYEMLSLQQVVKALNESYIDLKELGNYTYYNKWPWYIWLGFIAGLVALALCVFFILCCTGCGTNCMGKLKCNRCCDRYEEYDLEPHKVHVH

[2] = target: SARS-CoV Spike S1 Subunit Protein (strain WH20) (SARS-CoV, UniProt P59594 14-667); assay: Octet (BLI): inhibition of SARS-CoV S1 binding to immobilized hACE2
[3] = target: SARS-CoV S protein (Urbani strain) expressed on ExpiCHO cells (SARS-CoV, UniProt P59594 14-1255); assay: flow cytometry on ExpiCHO cells transfected with SARS-CoV S

Binder | binding result [1] | IC50 [2] | binding result [3]
B1 | no binding (tested: 10 µg/ml) | 2.69 µg/mL | –
B2 | no binding (tested: 10 µg/ml) | – | binds
B3 | no binding (tested: 10 µg/ml) | 1.13 µg/mL | –
B4 | no binding (tested: 10 µg/ml) | – | binds
